Data as given in patent US20200397816A1, “METHODS TO TREAT INFLAMMATORY AND SMOOTH MUSCLE CELL PROLIFERATION DISORDERS” (THE TRUSTEES OF INDIANA UNIVERSITY, priority 2019, published 2020).
Entries after “also recorded” stand apart in the source; their conditions may differ.

Key:
pSphK1 (Ser225) = pSphK1 (Ser225) immunoblotting and immunofluorescence in hPASMC; assay type: cell-based, human; details: SMCs
Experimental: RAW 264.7 (ATCC) mouse macrophages and Human Embryonic Kidney (HEK) 293T cells were cultured in DMEM media with 10% fetal bovine serum […] and glutamine HEPES buffer and beta-mercaptoethanol were added to the growth medium used for RAW 264.7 macrophages. […]
(§1) After appropriate treatments, protein lysates were prepared by using RIPA buffer supplemented with phosphatase and protease inhibitors (Thermo Fischer Scientific). […] Western blots were performed according to standard methods and quantified using densitometry using Image Studio Lite software from LI-COR Biosciences. […]
as §1, with “Fisher” for “Fischer”

EGR1 = EGR1 protein western blot and immunofluorescence in hPASMC; assay type: cell-based, human; details: SMCs
Experimental: RAW 264.7 (ATCC) mouse macrophages and Human Embryonic Kidney (HEK) 293T cells were cultured in DMEM media with 10% fetal bovine serum […] and glutamine HEPES buffer and beta-mercaptoethanol were added to the growth medium used for RAW 264.7 macrophages. Primary human pulmonary artery smooth muscle cells (hPASMC) purchased from Lonza (Walkersville, Md.) were cultured in complete growth medium containing smooth muscle growth media-2 (SmGM-2) with 10% FBS and growth factors provided as a kit by the supplier (Lonza, (Walkersville, Md.). THP-1 human monocyte cells were cultured in RPMI 1640 with 10% FBS and glutamine Cells were cultured in a humidified atmosphere with 5% CO2 at 370 C. For all studies passages 5-14 were used for RAW 264.7 and passages 5-10 were used for hPASMCs. For treatment studies, subconfluent cells plated in multi-well plates were serum starved and if required, pretreated for with inhibitors before stimulating with 2 μg/mL recombinant EMAP II.
After appropriate treatments, protein lysates were prepared by using RIPA buffer supplemented with phosphatase and protease inhibitors (Thermo Fischer Scientific). Alpha-tubulin was used as a loading control. For nuclear and cytoplasmic fractionation, NE-PER kit from Thermo Fischer Scientific was used. Western blots were performed according to standard methods and quantified using densitometry using Image Studio Lite software from LI-COR Biosciences.
Primary hPASMCs cells or human THP-1 macrophages were seeded in Nunc Lab-Tek™ II 4-well imaging plates (Thermo Fisher Scientific) chamber well slides and cultured in growth medium. After the serum starvation cells were stimulated with EMAP II. Treated cells were rinsed with PBS and fixed with 4% paraformaldehyde at room temperature for 15 min and permeabilized with 0.1% Triton X-100 at room temperature for 10 min After washing with PBS three times, the cells were incubated with EGR1, 1amin, or pSphK1 antibody at 40C overnight. The cells were then rinsed with PBS three times and subsequently incubated with respective secondary antibody conjugated with Alex Fluor 647 and 488 or Phalloidin 488 at room temperature for 1 h. The cells were rinsed with PBS three times and coverslips were mounted with SlowFade Gold Antifade Mountant with DAPI (Thermo Fischer Scientific) and the cells were examined under Olympus microscope with 40× for EGR1 expression and with 60× for pSphK1 water immersion.
Knockdown of endogenous EGR1 was carried out by transfecting with 25 nM final concentration of ON-TARGETplus siRNAs specific for EGR1 or non-targeting control purchased from GE Dharmacon (Lafayette,CO) using Viromer Blue (Lipocalyx) per manufacturer's instructions. Cells were stimulated with EMAP II 48 h post-transfection.
RAW 264.7 (ATCC) mouse macrophages and HEK-293T (ATCC) cells were cultured in DMEM media with 10% (v/v) fetal bovine serum (FBS) and 2 mM glutamine HEPES buffer and beta-mercaptoethanol were added to the growth medium used for RAW 264.7 macrophages. […]

B1: EMAP II: 6x-His tagged recombinant EMAP II, cleaved C-terminal peptide of AIMP1 (SEQ ID NO: 2), pro-inflammatory cytokine (protein)
chain: IAGSADSKPIDVSRLDLRIGCIITARKHPDADSLYVEEVDVGEIAPRTVVSGLVNHVPLEQMQNRMVILLCNLKPAKMRGVLSQAMVMCASSPEKIEILAPPNGSVPGDRITFDAFPGEPDKELNPKKKIWEQIQPDLHTNDECVATYKGVPFEVKGKGVCRAQTMSNSGIK
pSphK1 localization to the plasma membrane (pSphK1 (Ser225); immunostaining pSphK1 and actin, 15 minutes, 1 hour, 6 hours EMAP II): stimulated translocation; also recorded: trafficked to the plasma membrane; also recorded: increased pSPHK1 signal
SphK1 phosphorylation (pSphK1/Tubulin) (pSphK1 (Ser225); peaks at 1 and 6 hours of EMAP II): bi-modal SphK1 phosphorylation; also recorded: bimodal SPHK1 phosphorylation
EGR1 expression in whole cell lysates (EGR1; 1 to 2 hours following EMAP II): significant upregulation
upregulation of nuclear EGR1 expression (EGR1; EMAP II 2 μg/mL, at 1 hour): 2.5 fold
nuclear EGR1 expression by immunofluorescence vs control (EGR1; EMAP II 1 hour): significantly elevated
